Biological target: pertussis toxin (Bordetella pertussis, UniProt P04977 35-269; P04978 28-226; P04979 29-227; P0A3R5 43-152; P04981 35-133)
Test: ELISA, plate coated with pertussis toxin, antibody titrated, detection with goat anti-human kappa constant domain-HRP [panel C]

B1: hu1B7 antibody (antibody, V domains shown)
VH: EVQLVESGGGLVQPGGSLRLSCAASGYKFTSYWMHWVRQAPGKGLEWVGNIFPGSGSTNYDEKFNSRFTISVDTSKNTAYLQMNSLRAEDTAVYYCTRWLSGAYFDYWGQGTLVTVSS
VL: DIQMTQSPSSLSASVGDRVTITCSASSSVSFMYWYQQKPGKAPKLLIYLTSNLPSGVPSRFSGFGSGTDYTLTISSLQPEDFATYYCQQWSSHPPTFGQGTKVEIK
  EC50 (read off the curve): ~0.05 µg/mL
